The results in this text go back to patent US7807162B2, “Single domain VHH antibodies against von Willebrand factor” (Ablynx N.V., priority 2005, dated 2010).

Experiment [1] concerns cyclic flow reductions (CFRs) in injured, stenosed femoral artery. Put plainly: Folts thrombosis model in baboons: length/inhibition of cyclic flow reductions (CFRs). In kind it is in vivo, baboon (Papio ursinus). The method, then:
The study protocol that was applied is the original Folts model and some modifications described below (Folts J D, et al, Circulation. 1976; 54:365-370). Healthy male or female baboons (Papio ursinus) were used. The animals were 8-17 kg of weight and were disease-free for at least 2 weeks prior to use. The baboons were fed with dry standard food only. The baboons were used at different time points. […] Animals were anaesthetized and body temperature is maintained at 37° C. with a heating table. A segment of a femoral artery was dissected free from surrounding tissue. A shunt was placed between the femoral vein and femoral artery to obtain high shear rates. The mean and phasic blood flow was recorded continuously throughout the experiment. Baseline flow was recorded for 20 minutes. […] A clamp was placed over the injured site to create an external stenosis. A gradual decline in blood flow due to platelet adhesion and aggregation was observed. When flow was reduced to zero, blood flow was restored by opening the clamp to dislodge the platelet-rich thrombus. This repetitive pattern of decreasing blood flow following mechanical restoration is referred to as cyclic flow reductions (CFRs). Additional endothelial injury was repeated if needed to finally obtain stable CFRs in these baboons. The number of times the thrombus needed to be dislodged determines the number of CFRs. FIG. 24 illustrates blood flow pattern during the Folts model in baboons. […] This procedure was repeated for several times with escalating doses of the test substance. The anti-thrombotic effect was quantified by comparing the length of CFRs before and after drug administration. When full inhibition of CFRs was observed, a new injury was applied in order to confirm that the inhibition was an effect of the treatment but not of a natural healing phenomenon.

The test system of experiment [2] is platelet adhesion to collagen type III. Put plainly: Inhibition of platelet adhesion by nanobodies in a flow (perfusion) chamber. The class given is cell-based, human. As to conditions: for % Platelet adhesion at 2 μg/ml: human blood, collagen type III, wall shear rate 1600 s^−1. As for the experimental part: The protein samples were analysed in a perfusion chamber. Thermanox coverslips (Nunc) were soaked overnight in 80% ethanol, rinsed thoroughly with distilled water and air-dried. Human placental collagen type III (Sigma) was solubilized in 0.05 mol/l acetic acid and sprayed on the coverslips at a final density of 30 μg/cm^2 with a retouching airbrush. After spraying the coverslips were blocked with 1% human albumin solution in PBS for at least 1 hour at RT. Perfusions were performed with a single-pass perfusion chamber under non-pulsatile flow conditions using a modified small perfusion chamber with a slit height of 0.1 mm and a slit width of 2 mm. Blood was obtained by venipuncture from healthy volunteers and anti-coagulated with Penta/PPACK. Triplicate coverslips were inserted into the chamber. […] After a perfusion run, the coverslip was taken from the chamber, rinsed in Hepes buffered saline (10 mM Hepes, 150 mM NaCL, ph 7.4), fixed in 0.5% glutaraldehyde in PBS, dehydrated in methanol and stained with May-Grünwald and Giemsa (Riedel de Haën). Platelet deposition was evaluated as platelet surface coverage using light microscopy and computer-assisted analysis.

The mark [3] stands for this setting: number of experiments with inhibition / total number of independent repeats.

Positions count from the first letter of the chain named. Values joined by “and” are separate entries in the source; they are usually repeats but may differ in a detail not shown here. Equal entries are not always repeated.

With `CC(=O)Oc1ccccc1C(=O)O` [Aspegic], the “Length of CFRs” value in experiment [1] (Aspegic final dose 1 mg/kg, individual baboons 3, 4, 5, 1 mg/kg) is 149 s and 164 s and 135 s; in experiment [1] (Aspegic final dose 2.5 mg/kg, individual baboons 3, 4, 5, 2.5 mg/kg), 102 s and 325 s and 115 s; in experiment [1] (Aspegic final dose 5 mg/kg, individual baboons 3, 4, 5, 5 mg/kg) it was 102 s and 1800 s and 245 s; in experiment [1] (Aspegic final dose 10 mg/kg, individual baboons 3, 4, 5, 10 mg/kg), 113 s and 905 s and 156 s; in experiment [1] (Aspegic final dose 20 mg/kg, individual baboons 3, 4, 5, 20 mg/kg), 125 s and 657 s and 169 s; in experiment [1] (Aspegic final dose 40 mg/kg, individual baboons 3, 5, 40 mg/kg) it was 110 s and 145 s. Moreover, the “Length of CFRs” value in experiment [1] (Aspegic final dose 80 mg/kg, baboon 3) came to 129 s; in experiment [1] (Aspegic-treated, after Epinephrin, baboon 4), 161 s. In addition, the “Inhibition of CFRs” value was “no inhibition of CFRs could be obtained” in experiment [1] (baboon 3 and 5, doses as high as 80 and 40 mg/kg respectively); 0/3 in experiment [1] (setting [3]). Moreover, the “dose at which full inhibition of CFRs was obtained” value in experiment [1] (baboon 4) is 5 mg/kg. The “mean length of the CFRs versus before administration” value in experiment [1] (baboon 4, higher doses and upon new injury, CFRs returned) was 3-4 times. In addition, in experiment [1] (setting [3]), the “Inhibition of CFRs after administration of Epinephrin” value was 0/1. Further, the “Inhibition of CFRs after new injury” value in experiment [1] (setting [3]) is listed as 0/3.

B1: 12D11: anti-vWF nanobody, SEQ ID NO: 63 (protein)
VHH: AVQLVDSGGGLVQAGGSLRLSCTASERTTFSSYTLGWFRQAPGKEREFVGGISWSGVSTDYAEFAKGRFTISRDHAANTVYLEMNSLKPEDTAVYYCAALGRYRSNWRNIGQYDYWGQGTQVTVSS
On to B1, for which the “% Platelet adhesion at 2 μg/ml” value in experiment [2] (2 μg/ml nanobody) is listed as 61 ± 7%.

B2: 12A2-GS9-12A2 (protein)
VHH: QVKLEESGGGLVQAGGALRLSCAASGRTFSYNPMGWFRQAPGKERDLVAAISRTGGSTYYPDSVEGRFTISRDNAKRMVYLQMNNLKPEDTAVYYCAAAGVRAEDGRVRTLPSEYTFWGQGTQVTVSSGGGGSGGGSEVQLVESGGGLVQAGGALRLSCAASGRTFSYNPMGWFRQAPGKERDLVAAISRTGGSTYYPDSVEGRFTISRDNAKRMVYLQMNNLKPEDTAVYYCAAAGVRAEDGRVRTLPSEYTFWGQGTQVTVSS
With B2, the “% Platelet adhesion” value was determined as 81 ± 1% in experiment [2] (0.1 μg/ml nanobody, Table 23); 73 ± 1% in experiment [2] (0.2 μg/ml nanobody, Table 23); 40 ± 2% in experiment [2] (0.4 μg/ml nanobody, Table 23).

B3: 12A2-3a-12A2 (protein)
VHH: QVKLEESGGGLVQAGGALRLSCAASGRTFSYNPMGWFRQAPGKERDLVAAISRTGGSTYYPDSVEGRFTISRDNAKRMVYLQMNNLKPEDTAVYYCAAAGVRAEDGRVRTLPSEYTFWGQGTQVTVSSAAAEVQLVESGGGLVQAGGALRLSCAASGRTFSYNPMGWFRQAPGKERDLVAAISRTGGSTYYPDSVEGRFTISRDNAKRMVYLQMNNLKPEDTAVYYCAAAGVRAEDGRVRTLPSEYTFWGQGTQVTVSS
As to B3, the “% Platelet adhesion” value is given as 74 ± 5% in experiment [2] (0.1 μg/ml nanobody, Table 23); 50 ± 3% in experiment [2] (0.2 μg/ml nanobody, Table 23); 10 ± 8% in experiment [2] (0.3 μg/ml nanobody, Table 41); 33 ± 0% in experiment [2] (0.4 μg/ml nanobody, Table 23); 4 ± 3% in experiment [2] (0.6 μg/ml nanobody, Table 41).

B4: 14F8: anti-vWF nanobody, SEQ ID NO: 66 (protein)
VHH: AVQLVESGGGLVQAGESLRLSCTSSGRAFSYYNTGWFRQAPGKEREFVAAISWSGGLTYYADSVKGRFTISRDNAKDMVYLQMASLKPEDTAVYYCAANRRQKTVQMGERAYDYWGQGTQVTVSS
Consider B4, for which, in experiment [2] (2 μg/ml nanobody), the “% Platelet adhesion at 2 μg/ml” value was determined as 51 ± 10%.

B5: 12B6-3a-12B6 (protein)
VHH: QVQLVESGGGLVQAGGALRLSCAASGRTFSYNPMGWFRQAPGKERDVVAAISRTGGSTYYARSVEGRFTISRDNAKRMVYLQMNALKPEDTAVYYCAAAGVRAEDGRVRTLPSEYNFWGQGTQVTVSSAAAEVQLVESGGGLVQAGGALRLSCAASGRTFSYNPMGWFRQAPGKERDVVAAISRTGGSTYYARSVEGRFTISRDNAKRMVYLQMNALKPEDTAVYYCAAAGVRAEDGRVRTLPSEYNFWGQGTQVTVSS
Turning to B5, the “% Platelet adhesion” value in experiment [2] (0.3 μg/ml nanobody, Table 41) came out at 15 ± 6%; in experiment [2] (0.6 μg/ml nanobody, Table 41), 8 ± 6%.

B6: 12A2H4-3a-12A2H4 (protein)
chain: EVQLVESGGGLVQPGGSLRLSCAASGRTFSYNPMGWFRQAPGKGRELVAAISRTGGSTYYPDSVEGRFTISRDNAKRSVYLQMNSLRAEDTAVYYCAAAGVRAEDGRVRTLPSEYTFWGQGTQVTVSSAAAEVQLVESGGGLVQPGGSLRLSCAASGRTFSYNPMGWFRQAPGKGRELVAAISRTGGSTYYPDSVEGRFTISRDNAKRSVYLQMNSLRAEDTAVYYCAAAGVRAEDGRVRTLPSEYTFWGQGTQVTVSS
B6: the “% Platelet adhesion” value is 10 ± 6% in experiment [2] (0.3 μg/ml nanobody, Table 41) and 8 ± 4% in experiment [2] (0.6 μg/ml nanobody, Table 41).

B7: 12C9: anti-vWF nanobody, SEQ ID NO: 65 (protein)
VHH: AVQLVESGGGLVQPGGSLKLSCATSGSIFSSSAMAWYRQASGKQRELVATITSGGRTSYADSVKGRFTISRDNAKNTVYLQMNSLKPEDTAVYDCNFVVDGKRAPWGQGTQVTVSS
Regarding B7, the “% Platelet adhesion at 2 μg/ml” value in experiment [2] (2 μg/ml nanobody) is listed as 68 ± 8%.

B8: 12A5: anti-vWF nanobody, SEQ ID NO: 60 (protein)
VHH: AVQLVESGGGLVQPGGSLRLSCLASGRIFSIGAMGMYRQAPGKQRELVATITSGGSTNYADPVKGRFTISRDGPKNTVYLQMNSLKPEDTAVYYCYANLKQGSYGYRFNDYWGQGTQVTVSS
Regarding B8, the “% Platelet adhesion” value is 50 ± 7% in experiment [2] (0.2 μg/ml nanobody, Table 15); 27 ± 10% in experiment [2] (0.4 μg/ml nanobody, Table 15); 2 ± 2% in experiment [2] (0.6 μg/ml nanobody, Table 15). For the same molecule, the “% Platelet adhesion at 2 μg/ml” value in experiment [2] (2 μg/ml nanobody) was 10 ± 3%. For the same molecule, in experiment [2] (perfusion chamber at high shear rate), the “inhibition of platelet adhesion to collagen type III” value is given as “clearly inhibit platelet adhesion”. Moreover, the “concentration with full inhibition of platelet adhesion” value in experiment [2] (tested at 0.2, 0.4 and 0.6 μg/ml, same donor) turned out to be 0.6 µg/mL.

B9: 12A2H4: humanised 12A2 nanobody, SEQ ID NO: 92 (protein)
VHH: EVQLVESGGGLVQPGGSLRLSCAASGRTFSYNPMGWFRQAPGKGRELVAAISRTGGSTYYPDSVEGRFTISRDNAKRSVYLQMNSLRAEDTAVYYCAAAGVRAEDGRVRTLPSEYTFWGQGTQVTVSS
As to B9, the “% Platelet adhesion” value in experiment [2] (0.5 μg/ml nanobody, Table 32) was found to be 61 ± 1%; in experiment [2] (0.7 μg/ml nanobody, Table 31), 55 ± 1%; in experiment [2] (1 μg/ml nanobody, Table 32), 57 ± 1%; in experiment [2] (2 μg/ml nanobody, Table 32) it was 46 ± 5%.

B10: 12A2H1: humanised 12A2 nanobody, SEQ ID NO: 90 (protein)
VHH: B9 VHH with S78M
B10: the “% Platelet adhesion” value was found to be 40 ± 9% in experiment [2] (0.5 μg/ml nanobody, Table 32); 49 ± 1% in experiment [2] (0.7 μg/ml nanobody, Table 31); 43 ± 3% in experiment [2] (1 μg/ml nanobody, Table 32); 38 ± 5% in experiment [2] (2 μg/ml nanobody, Table 32).

B11: 12B1: anti-vWF nanobody, SEQ ID NO: 61 (protein)
VHH: QVQLVESGGGLVQAGGSLRLSCAASGRTFSNYGMGWFRQAPGKEREFVTSISWSGTYTAYSDNVKGRFTISRDNAKNTVYLQMDSLKPEDTAVYYCAAQSRYRSNYYDHDDKYAYWGQGTQVTVSS
Take B11: the “% Platelet adhesion at 2 μg/ml” value in experiment [2] (2 μg/ml nanobody) was found to be 56 ± 3%.

B12: 12E3: anti-vWF nanobody, SEQ ID NO: 64 (protein)
VHH: B11 VHH with Q1E, S30N, T56S, S61A, E89G, R103S
As for B12, the “% Platelet adhesion at 2 μg/ml” value in experiment [2] (2 μg/ml nanobody) amounted to 54 ± 1%.
